Measurements as given in US20240400703A1 (Genmab, published 2024).

T1: recombinant human OX40 fused to a His-tag (Acro Biosystems, cat. no. OX0-H5224) (human, UniProt P43489 29-214)
T1 construct: bought protein; also called sOX40; soluble OX40; not shown: His-tag
T1 sequence: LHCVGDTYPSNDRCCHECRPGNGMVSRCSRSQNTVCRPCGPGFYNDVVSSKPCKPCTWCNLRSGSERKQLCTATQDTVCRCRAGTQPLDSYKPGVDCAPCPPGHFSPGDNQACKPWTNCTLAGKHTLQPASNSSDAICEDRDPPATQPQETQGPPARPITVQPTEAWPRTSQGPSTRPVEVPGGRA

B1: IgG1-CD134-003-HC6LC2-P329R-E345R (antibody)
heavy: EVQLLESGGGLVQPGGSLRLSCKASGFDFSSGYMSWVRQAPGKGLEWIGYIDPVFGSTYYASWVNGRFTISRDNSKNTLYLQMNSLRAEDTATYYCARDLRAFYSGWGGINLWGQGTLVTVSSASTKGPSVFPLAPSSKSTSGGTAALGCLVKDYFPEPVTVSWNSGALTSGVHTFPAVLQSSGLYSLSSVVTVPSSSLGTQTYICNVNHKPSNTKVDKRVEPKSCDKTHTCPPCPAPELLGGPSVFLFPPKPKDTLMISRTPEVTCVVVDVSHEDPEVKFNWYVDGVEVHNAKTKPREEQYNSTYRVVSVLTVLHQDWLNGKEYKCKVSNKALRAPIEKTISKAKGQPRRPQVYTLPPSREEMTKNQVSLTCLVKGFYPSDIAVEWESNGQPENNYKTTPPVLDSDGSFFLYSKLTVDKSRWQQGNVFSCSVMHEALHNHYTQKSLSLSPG
light: AAVLTQSPSSLSASVGDRVTITCQSSQIVVNNNFLSWYQQKPGKAPKLLIYDASNLASGVPDRFSGSGSGTDFTFTISSLQPEDIATYYCLGGYDDDAENAFGGGTKVEIKRTVAAPSVFIFPPSDEQLKSGTASVVCLLNNFYPREAKVQWKVDNALQSGNSQESVTEQDSKDSTYSLSSTLTLSKADYEKHKVYACEVTHQGLSSPVTKSFNRGEC
notes: humanized; human IgG1 with P329R and E345R (Eu numbering), kappa; also called IgG1-CD134-003-HC6LC2-RR
B2: IgG1-CD134-012 (antibody)
heavy: not shown
light: DIVMTQTPASVEAAVGGTVTIKCQASENIYSSLAWYQQKPGQPPKLLIYRTSTLASGVPSRFKGSGSGTQFTLTISDLESDDAATYYCQSYYHNSGGGYDYGFGGGTEVVAKRTVAAPSVFIFPPSDEQLKSGTASVVCLLNNFYPREAKVQWKVDNALQSGNSQESVTEQDSKDSTYSLSSTLTLSKADYEKHKVYACEVTHQGLSSPVTKSFNRGEC
notes: rabbit-human chimeric IgG1
B3: IgG1-CD134-003 (antibody)
heavy: not shown
light: AAVLTQTPSPVSAAVGGTVTIKCQSSQIVVNNNFLSWYQQKPGQPPKLLIYDASNLASGVPDRFSGSGSGTQFTLTISGVQSDDAATYYCLGGYDDDAENAFGGGTEVVVQRTVAAPSVFIFPPSDEQLKSGTASVVCLLNNFYPREAKVQWKVDNALQSGNSQESVTEQDSKDSTYSLSSTLTLSKADYEKHKVYACEVTHQGLSSPVTKSFNRGEC
notes: rabbit-human chimeric IgG1, wild-type Fc; also called parental chimeric antibody
B4: IgG1-CD134-007 (antibody)
heavy: not shown
light: AQVLTQTPSPVSAAVGGTVTISCQSSESVWNNNWLAWYQQKPGQPPNLLIYEASTLASGVSSRFKGSGSGTQFTLTVSEVQSDDAATYYCQGGYYDSSPIWTFGGGTEVVVKRTVAAPSVFIFPPSDEQLKSGTASVVCLLNNFYPREAKVQWKVDNALQSGNSQESVTEQDSKDSTYSLSSTLTLSKADYEKHKVYACEVTHQGLSSPVTKSFNRGEC
notes: rabbit-human chimeric IgG1

molecular target: T1, recombinant human OX40 fused to a …; experiment: BLI cross-block; first Ab (competitor): IgG1-CD134-INCAGN1949
Method: (§1) Experiments were carried out while shaking at 1,000 RPM and at 30° C.
(§2) Amine Reactive 2nd Generation (AR2G) biosensors (Sartorius, cat. no. 18-5092) were activated for 300 s with a solution of 20 mM EDC (N-(3-Dimethylaminopropyl)-N-ethylcarbodiimide hydrochloride; Sartorius, cat. no. 18-1033) and 10 mM s-NHS (N-hydroxysulfosuccinimide sodium salt; Sartorius, cat. no. 18-1067). […] After a baseline measurement in Sample Diluent (Sartorius, cat. no. 18-1104) for 50 s, the AR2G biosensors containing immobilized antibody were loaded for 300 s with human OX40 fused to a His-tag (100 nM diluted in Sample Diluent; Acro Biosystems, cat. no. OX0-H5224). The association (300 s) of a second antibody (10 μg/mL in Sample Diluent) was determined. Sensors were regenerated by three cycles of exposure to 10 mM Glycine (Sigma-Aldrich, cat. no. 15527) buffer pH 2.5 for 5 s followed by neutralization in Sample Diluent for 5 s.
(§3) Data were acquired using Data Acquisition Software v12.0 (Sartorius) and analyzed with Data Analysis HT Software v12.0 (Sartorius). Data traces were corrected by subtraction of a reference curve (Sample Diluent instead of second antibody) in order to correct for the dissociation of antigen from the immobilized first antibody. The Y-axis was aligned to the start of the association step and Savitzky-Golay filtering was applied. The corrected association responses of the second antibodies were plotted in a matrix format (Table 5). Responses ≥0.1 nm were considered non-blocking antibody pairs, while responses <0.1 were considered blocking antibody pairs.

| association response | Binder |
| --- | --- |
| 0.19 nm | B1 |
| 0.07 nm | B2 |
| 0.15 nm | B3 |
| 0.06 nm | B4 |

molecular target: T1, recombinant human OX40 fused to a …; experiment: BLI cross-block; first Ab (competitor): IgG1-CD134-003
Method: as §1, §2, §3

| association response | Binder |
| --- | --- |
| 0.04 nm | B1 |
| 0 nm | B2 |
| 0.02 nm | B3 |
| -0.02 nm | B4 |

molecular target: T1, recombinant human OX40 fused to a …; experiment: BLI cross-block; first Ab (competitor): IgG1-CD134-MEDI0562
Method: as §2, §3

| association response | Binder |
| --- | --- |
| 0.34 nm | B1 |
| 0.23 nm | B2 |
| 0.3 nm | B3 |
| 0.32 nm | B4 |

molecular target: T1, recombinant human OX40 fused to a …; experiment: BLI cross-block; first Ab (competitor): IgG1-CD134-GBR830
Method: as §1, §2, §3

| association response | Binder |
| --- | --- |
| 0.19 nm | B1 |
| 0.16 nm | B2 |
| 0.2 nm | B3 |
| 0 nm | B4 |

molecular target: T1, recombinant human OX40 fused to a …; experiment: BLI cross-block; first Ab (competitor): IgG1-CD134-h3C8
Method: as §2, §3

| association response | Binder |
| --- | --- |
| 0.5 nm | B1 |
| 0.35 nm | B2 |
| 0.46 nm | B3 |
| -0.02 nm | B4 |

molecular target: T1, recombinant human OX40 fused to a …; experiment: BLI cross-block; first Ab (competitor): IgG1-CD134-007
Method: as §2, §3

| association response | Binder |
| --- | --- |
| -0.04 nm | B1 |
| 0.82 nm | B2 |
| -0.07 nm | B3 |
| 0.01 nm | B4 |

molecular target: T1, recombinant human OX40 fused to a …; experiment: BLI cross-block; first Ab (competitor): IgG1-CD134-012
Method: as §1, §2, §3

| association response | Binder |
| --- | --- |
| -0.02 nm | B1 |
| 0 nm | B2 |
| -0.01 nm | B3 |
| 0.8 nm | B4 |

molecular target: T1, recombinant human OX40 fused to a …; experiment: BLI cross-block; first Ab (competitor): IgG1-CD134-Hu106
Method: as §2, §3

| association response | Binder |
| --- | --- |
| 0.74 nm | B1 |
| 0.51 nm | B2 |
| 0.64 nm | B3 |
| 0 nm | B4 |

molecular target: T1, recombinant human OX40 fused to a …; experiment: BLI cross-block; first Ab (competitor): IgG1-CD134-11D4
Method: as §2, §3

| association response | Binder |
| --- | --- |
| 0 nm | B1 |
| 0 nm | B2 |
| 0.01 nm | B3 |
| 0.15 nm | B4 |

molecular target: T1, recombinant human OX40 fused to a …; experiment: BLI cross-block; first Ab (competitor): IgG1-CD134-A4453
Method: as §2, §3

| association response | Binder |
| --- | --- |
| 0.31 nm | B1 |
| 0.22 nm | B2 |
| 0.26 nm | B3 |
| 0.28 nm | B4 |

molecular target: T1, recombinant human OX40 fused to a …; experiment: BLI cross-block; first Ab (competitor): IgG1-CD134-ABBV368
Method: as §1, §2, §3

| association response | Binder |
| --- | --- |
| 0.85 nm | B1 |
| 0.51 nm | B2 |
| 0.72 nm | B3 |
| -0.05 nm | B4 |

molecular target: T1, recombinant human OX40 fused to a …; experiment: BLI cross-block; first Ab (competitor): IgG1-CD134-003-HC6LC2-RR
Method: as §2, §3

| association response | Binder |
| --- | --- |
| 0 nm | B1 |
| 0.03 nm | B2 |
| -0.03 nm | B3 |
| -0.07 nm | B4 |

molecular target: T1, recombinant human OX40 fused to a …; experiment: BLI cross-block; first Ab (competitor): IgG1-CD134-IBI101
Method: as §2, §3

| association response | Binder |
| --- | --- |
| 0.34 nm | B1 |
| 0.28 nm | B2 |
| 0.23 nm | B3 |
| 0 nm | B4 |

molecular target: T1, recombinant human OX40 fused to a …; experiment: BLI cross-block; first Ab (competitor): IgG1-CD134-RG7888
Method: as §2, §3

| association response | Binder |
| --- | --- |
| 0.65 nm | B1 |
| 0.42 nm | B2 |
| 0.66 nm | B3 |
| 0.64 nm | B4 |

molecular target: T1, recombinant human OX40 fused to a …; experiment: BLI cross-block; first Ab (competitor): IgG1-CD134-SF2
Method: as §2, §3

| association response | Binder |
| --- | --- |
| 0.22 nm | B1 |
| 0.14 nm | B2 |
| 0.21 nm | B3 |
| 0.22 nm | B4 |

molecular target: T1, recombinant human OX40 fused to a …; experiment: BLI cross-block; first Ab (competitor): IgG1-CD134-49B4-RRE
Method: as §1, §2, §3

| association response | Binder |
| --- | --- |
| 0.25 nm | B1 |
| 0.1 nm | B2 |
| 0.2 nm | B3 |
| 0 nm | B4 |
